# Laboratory results: patent US20140087995A1 (published 2014)
# Numbered stars: 1 amine (or outer) side, 2 acyl side, 3 side chain; on linkers, the order of the positions; unused ones are H or OH. Bridge positions count the residues as written; N and C are the ends. Side chains are listed from the residue outwards. Ends that are not written are not given here. * marks the point of attachment. C20 diacid = O=C(O)CCCCCCCCCCCCCCCCCCC(=O)*; γGlu = O=C(O)[C@H](CCC(=O)[*:2])N[*:1]
# T1: human calcitonin receptor (human, UniProt P30988 25-474)
# T1 construct: whole, on cells; also called hCTR; hCT
# T1 sequence (looked up): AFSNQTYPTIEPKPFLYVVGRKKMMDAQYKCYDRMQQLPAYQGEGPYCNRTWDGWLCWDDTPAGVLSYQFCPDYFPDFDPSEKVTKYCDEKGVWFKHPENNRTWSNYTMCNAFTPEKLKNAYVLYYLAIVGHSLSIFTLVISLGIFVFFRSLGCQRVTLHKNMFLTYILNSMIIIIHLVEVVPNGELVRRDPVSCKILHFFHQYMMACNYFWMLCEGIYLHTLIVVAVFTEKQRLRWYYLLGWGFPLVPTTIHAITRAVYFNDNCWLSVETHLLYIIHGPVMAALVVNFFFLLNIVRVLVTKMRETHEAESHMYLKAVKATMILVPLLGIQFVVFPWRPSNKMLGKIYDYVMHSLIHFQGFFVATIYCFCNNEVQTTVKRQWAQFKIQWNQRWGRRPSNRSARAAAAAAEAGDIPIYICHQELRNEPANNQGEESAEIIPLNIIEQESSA
# How the values were obtained:
# [1] = biological target: T1, human calcitonin receptor; assay: ratio of IC50 at hCTR to IC50 at the human amylin receptor (reference)
# In short: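 Competition binding by SPA with cell membranes (35 ng/μL) and SPA beads in 50 mM Hepes pH 7.4 with 1 mM CaCl2, 5 mM MgCl2, 0.1% OA and 0.02% Tween20. Incubated 120 min at 25 °C with shaking, then counted.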
# [2] = biological target: T1, human calcitonin receptor; assay: SPA competition binding, membranes with human calcitonin receptor, displacement of 125I-calcitonin (Assay VII)
# In short: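 BHK hCTR membranes 35 ng/μL + SPA beads 0.05 mg/well; buffer 50 mM Hepes pH 7.4, 1 mM CaCl2, 5 mM MgCl₂, 0.1% OA, 0.02% Tween20. 120 min, 25° C., shaking. Scintillation count; IC50 by one-site binding competition.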
binder,measurement,setting,value
"K([γGlu-C20 diacid])CNTATCATQRLANFLRHSSPNFGAIPSSTNVGSETY-NH2 (disulfide 2-7; N-terminus assumed; SMILES CC[C@H](C)[C@H](NC(=O)[C@H](C)NC(=O)CNC(=O)[C@H](Cc1ccccc1)NC(=O)[C@H](CC(N)=O)NC(=O)[C@@H]1CCCN1C(=O)[C@H](CO)NC(=O)[C@H](CO)NC(=O)[C@H](Cc1c[nH]cn1)NC(=O)[C@H](CCCNC(=N)N)NC(=O)[C@H](CC(C)C)NC(=O)[C@H](Cc1ccccc1)NC(=O)[C@H](CC(N)=O)NC(=O)[C@H](C)NC(=O)[C@H](CC(C)C)NC(=O)[C@H](CCCNC(=N)N)NC(=O)[C@H](CCC(N)=O)NC(=O)[C@@H](NC(=O)[C@H](C)NC(=O)[C@@H]1CSSC[C@H](NC(=O)[C@@H](N)CCCCNC(=O)CC[C@H](NC(=O)CCCCCCCCCCCCCCCCCCC(=O)O)C(=O)O)C(=O)N[C@@H](CC(N)=O)C(=O)N[C@@H]([C@@H](C)O)C(=O)N[C@@H](C)C(=O)N[C@@H]([C@@H](C)O)C(=O)N1)[C@@H](C)O)C(=O)N1CCC[C@H]1C(=O)N[C@@H](CO)C(=O)N[C@@H](CO)C(=O)N[C@H](C(=O)N[C@@H](CC(N)=O)C(=O)N[C@H](C(=O)NCC(=O)N[C@@H](CO)C(=O)N[C@@H](CCC(=O)O)C(=O)N[C@H](C(=O)N[C@@H](Cc1ccc(O)cc1)C(N)=O)[C@@H](C)O)C(C)C)[C@@H](C)O, also called compound 27) [N^ε1-[(4S)-4-carboxy-4-(19-carboxynonadecanoylamino)butanoyl]-[Arg17,Pro21,Pro27,Glu35]-h-amylin]",Ratio hCT/hAmylin binding,[1],41.3
same,IC50,[2],34.5 nM
"K([γGlu-γGlu-C20 diacid])CNTATCATQRLADFLRHSSPNFGAPLSSTNVGSDTY-NH2 (disulfide 2-7; N-terminus assumed; SMILES CC(C)C[C@H](NC(=O)[C@H](CCCNC(=N)N)NC(=O)[C@H](CCC(N)=O)NC(=O)[C@@H](NC(=O)[C@H](C)NC(=O)[C@@H]1CSSC[C@H](NC(=O)[C@@H](N)CCCCNC(=O)CC[C@H](NC(=O)CC[C@H](NC(=O)CCCCCCCCCCCCCCCCCCC(=O)O)C(=O)O)C(=O)O)C(=O)N[C@@H](CC(N)=O)C(=O)N[C@@H]([C@@H](C)O)C(=O)N[C@@H](C)C(=O)N[C@@H]([C@@H](C)O)C(=O)N1)[C@@H](C)O)C(=O)N[C@@H](C)C(=O)N[C@@H](CC(=O)O)C(=O)N[C@@H](Cc1ccccc1)C(=O)N[C@@H](CC(C)C)C(=O)N[C@@H](CCCNC(=N)N)C(=O)N[C@@H](Cc1c[nH]cn1)C(=O)N[C@@H](CO)C(=O)N[C@@H](CO)C(=O)N1CCC[C@H]1C(=O)N[C@@H](CC(N)=O)C(=O)N[C@@H](Cc1ccccc1)C(=O)NCC(=O)N[C@@H](C)C(=O)N1CCC[C@H]1C(=O)N[C@@H](CC(C)C)C(=O)N[C@@H](CO)C(=O)N[C@@H](CO)C(=O)N[C@H](C(=O)N[C@@H](CC(N)=O)C(=O)N[C@H](C(=O)NCC(=O)N[C@@H](CO)C(=O)N[C@@H](CC(=O)O)C(=O)N[C@H](C(=O)N[C@@H](Cc1ccc(O)cc1)C(N)=O)[C@@H](C)O)C(C)C)[C@@H](C)O, also called compound 1)",Ratio hCT/hAmylin binding,[1],27.6
same,IC50,[2],32.5 nM
"K([γGlu-C20 diacid])CNTATCATQRLANFLRHSSPNFGAIPSSTNVGSNTY-NH2 (disulfide 2-7; N-terminus assumed; SMILES CC[C@H](C)[C@H](NC(=O)[C@H](C)NC(=O)CNC(=O)[C@H](Cc1ccccc1)NC(=O)[C@H](CC(N)=O)NC(=O)[C@@H]1CCCN1C(=O)[C@H](CO)NC(=O)[C@H](CO)NC(=O)[C@H](Cc1c[nH]cn1)NC(=O)[C@H](CCCNC(=N)N)NC(=O)[C@H](CC(C)C)NC(=O)[C@H](Cc1ccccc1)NC(=O)[C@H](CC(N)=O)NC(=O)[C@H](C)NC(=O)[C@H](CC(C)C)NC(=O)[C@H](CCCNC(=N)N)NC(=O)[C@H](CCC(N)=O)NC(=O)[C@@H](NC(=O)[C@H](C)NC(=O)[C@@H]1CSSC[C@H](NC(=O)[C@@H](N)CCCCNC(=O)CC[C@H](NC(=O)CCCCCCCCCCCCCCCCCCC(=O)O)C(=O)O)C(=O)N[C@@H](CC(N)=O)C(=O)N[C@@H]([C@@H](C)O)C(=O)N[C@@H](C)C(=O)N[C@@H]([C@@H](C)O)C(=O)N1)[C@@H](C)O)C(=O)N1CCC[C@H]1C(=O)N[C@@H](CO)C(=O)N[C@@H](CO)C(=O)N[C@H](C(=O)N[C@@H](CC(N)=O)C(=O)N[C@H](C(=O)NCC(=O)N[C@@H](CO)C(=O)N[C@@H](CC(N)=O)C(=O)N[C@H](C(=O)N[C@@H](Cc1ccc(O)cc1)C(N)=O)[C@@H](C)O)C(C)C)[C@@H](C)O, also called compound 48) [N^ε1-[(4S)-4-carboxy-4-(19-carboxynonadecanoylamino)butanoyl]-[Arg17,Pro21,Pro27]-h-amylin]",Ratio hCT/hAmylin binding,[1],69.7
same,IC50,[2],30.9 nM
"K([γGlu-γGlu-C20 diacid])CNTATCATQRLAEFLRHSSPNFGAIPSSTNVGSNTP-NH2 (disulfide 2-7 (inferred), also called compound 13)",Ratio hCT/hAmylin binding,[1],1.2
same,IC50,[2],0.305 nM
"K([γGlu-γGlu-C20 diacid])CNTATCATQRLADFLRHSSNPFGAPLSSTNVGSDTY-NH2 (disulfide 2-7; N-terminus assumed; SMILES CC(C)C[C@H](NC(=O)[C@H](CCCNC(=N)N)NC(=O)[C@H](CCC(N)=O)NC(=O)[C@@H](NC(=O)[C@H](C)NC(=O)[C@@H]1CSSC[C@H](NC(=O)[C@@H](N)CCCCNC(=O)CC[C@H](NC(=O)CC[C@H](NC(=O)CCCCCCCCCCCCCCCCCCC(=O)O)C(=O)O)C(=O)O)C(=O)N[C@@H](CC(N)=O)C(=O)N[C@@H]([C@@H](C)O)C(=O)N[C@@H](C)C(=O)N[C@@H]([C@@H](C)O)C(=O)N1)[C@@H](C)O)C(=O)N[C@@H](C)C(=O)N[C@@H](CC(=O)O)C(=O)N[C@@H](Cc1ccccc1)C(=O)N[C@@H](CC(C)C)C(=O)N[C@@H](CCCNC(=N)N)C(=O)N[C@@H](Cc1c[nH]cn1)C(=O)N[C@@H](CO)C(=O)N[C@@H](CO)C(=O)N[C@@H](CC(N)=O)C(=O)N1CCC[C@H]1C(=O)N[C@@H](Cc1ccccc1)C(=O)NCC(=O)N[C@@H](C)C(=O)N1CCC[C@H]1C(=O)N[C@@H](CC(C)C)C(=O)N[C@@H](CO)C(=O)N[C@@H](CO)C(=O)N[C@H](C(=O)N[C@@H](CC(N)=O)C(=O)N[C@H](C(=O)NCC(=O)N[C@@H](CO)C(=O)N[C@@H](CC(=O)O)C(=O)N[C@H](C(=O)N[C@@H](Cc1ccc(O)cc1)C(N)=O)[C@@H](C)O)C(C)C)[C@@H](C)O, also called compound 3)",Ratio hCT/hAmylin binding,[1],17.3
same,IC50,[2],19.5 nM
"K([γGlu-C20 diacid])CNTATCATQRLANFLRHSSPNFGAIPSSTNVGSKTY-NH2 (disulfide 2-7; N-terminus assumed; SMILES CC[C@H](C)[C@H](NC(=O)[C@H](C)NC(=O)CNC(=O)[C@H](Cc1ccccc1)NC(=O)[C@H](CC(N)=O)NC(=O)[C@@H]1CCCN1C(=O)[C@H](CO)NC(=O)[C@H](CO)NC(=O)[C@H](Cc1c[nH]cn1)NC(=O)[C@H](CCCNC(=N)N)NC(=O)[C@H](CC(C)C)NC(=O)[C@H](Cc1ccccc1)NC(=O)[C@H](CC(N)=O)NC(=O)[C@H](C)NC(=O)[C@H](CC(C)C)NC(=O)[C@H](CCCNC(=N)N)NC(=O)[C@H](CCC(N)=O)NC(=O)[C@@H](NC(=O)[C@H](C)NC(=O)[C@@H]1CSSC[C@H](NC(=O)[C@@H](N)CCCCNC(=O)CC[C@H](NC(=O)CCCCCCCCCCCCCCCCCCC(=O)O)C(=O)O)C(=O)N[C@@H](CC(N)=O)C(=O)N[C@@H]([C@@H](C)O)C(=O)N[C@@H](C)C(=O)N[C@@H]([C@@H](C)O)C(=O)N1)[C@@H](C)O)C(=O)N1CCC[C@H]1C(=O)N[C@@H](CO)C(=O)N[C@@H](CO)C(=O)N[C@H](C(=O)N[C@@H](CC(N)=O)C(=O)N[C@H](C(=O)NCC(=O)N[C@@H](CO)C(=O)N[C@@H](CCCCN)C(=O)N[C@H](C(=O)N[C@@H](Cc1ccc(O)cc1)C(N)=O)[C@@H](C)O)C(C)C)[C@@H](C)O, also called compound 35) [N^ε1-[(4S)-4-carboxy-4-(19-carboxynonadecanoylamino)butanoyl]-[Arg17,Pro21,Pro27,Lys35]-h-amylin]",Ratio hCT/hAmylin binding,[1],50.3
same,IC50,[2],48.8 nM
"K([γGlu-C20 diacid])CNTATCATQRLAEFLRHSSPNFGAIPSSTNVGSNTP-NH2 (disulfide 2-7; N-terminus assumed; SMILES CC[C@H](C)[C@H](NC(=O)[C@H](C)NC(=O)CNC(=O)[C@H](Cc1ccccc1)NC(=O)[C@H](CC(N)=O)NC(=O)[C@@H]1CCCN1C(=O)[C@H](CO)NC(=O)[C@H](CO)NC(=O)[C@H](Cc1c[nH]cn1)NC(=O)[C@H](CCCNC(=N)N)NC(=O)[C@H](CC(C)C)NC(=O)[C@H](Cc1ccccc1)NC(=O)[C@H](CCC(=O)O)NC(=O)[C@H](C)NC(=O)[C@H](CC(C)C)NC(=O)[C@H](CCCNC(=N)N)NC(=O)[C@H](CCC(N)=O)NC(=O)[C@@H](NC(=O)[C@H](C)NC(=O)[C@@H]1CSSC[C@H](NC(=O)[C@@H](N)CCCCNC(=O)CC[C@H](NC(=O)CCCCCCCCCCCCCCCCCCC(=O)O)C(=O)O)C(=O)N[C@@H](CC(N)=O)C(=O)N[C@@H]([C@@H](C)O)C(=O)N[C@@H](C)C(=O)N[C@@H]([C@@H](C)O)C(=O)N1)[C@@H](C)O)C(=O)N1CCC[C@H]1C(=O)N[C@@H](CO)C(=O)N[C@@H](CO)C(=O)N[C@H](C(=O)N[C@@H](CC(N)=O)C(=O)N[C@H](C(=O)NCC(=O)N[C@@H](CO)C(=O)N[C@@H](CC(N)=O)C(=O)N[C@H](C(=O)N1CCC[C@H]1C(N)=O)[C@@H](C)O)C(C)C)[C@@H](C)O, also called compound 12)",Ratio hCT/hAmylin binding,[1],2.5
same,IC50,[2],0.353 nM
